Results as given in paper doi:10.1101/2020.04.21.032086.

Molecular target: LgBiT-tagged human CXCR4 receptor (UniProt P61073)
Assay: split reporter

Binder: VSGWRLFKKIS [purified HiBiT-HaloTag fusion protein]
- koff: 0.00367 s⁻¹
- kon: 10000 M⁻¹ s⁻¹
- pKD: 6.43
